# Experimental data as given in patent publication US20260258137A1 (HARBOUR BIOMED SHANGHAI, published 2026).
# Positions count from the first letter of the chain named. Numbers in names are those of the source.
# B1: PR000067 (antibody, human IgG1, kappa, N297A, V domains shown)
# VH: EVQLVESGGGLVQPGGSLRLSCAASGFTFSSYWMSWVRQAPGKGLEWVANIKQDGSEKYYVDSVKGRFTISRDNAKNSLYLQMNSLRAEDTAVYYCARDRAVAGAFDIWGQGTMVTVSS
# VL: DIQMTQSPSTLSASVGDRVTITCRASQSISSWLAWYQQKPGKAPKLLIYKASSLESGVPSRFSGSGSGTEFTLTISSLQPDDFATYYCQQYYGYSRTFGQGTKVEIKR
# notes: fully human recombinant antibody, human IgG1 heavy chain, kappa light chain (IGKV1-5); also called 73G3G9B11
# B2: PR000070 (antibody, human IgG1, kappa, N297A, V domains shown)
# VH: B1 VH
# VL: DIQMTQSPSTLSASVGDRVTVTCRASQSIYIWLAWYQQKPGKAPNLLIYKASSLETGVPSRFSGSGSGTEFTLTISSLQPDDFATYYCQQYYGSSRTFGQGTKVEIKR
# notes: fully human recombinant antibody, human IgG1 heavy chain, kappa light chain (IGKV1-5); also called 91G3H5H3
# B3: PR000066 (antibody, human IgG1, kappa, N297A, V domains shown)
# VH: B1 VH with F106S, D107A, I108F
# VL: B2 VL with D17H, V21I, Y30S, N45D, S65N
# notes: fully human recombinant antibody, human IgG1 heavy chain, kappa light chain (IGKV1-5); also called 69B8G8C2
# B4: PR000069 (antibody, human IgG1, kappa, N297A, V domains shown)
# VH: B1 VH with Y94F, D107A
# VL: B2 VL with V21I, K39H, N45K, T56S, Y87F, S94Y, K107R
# notes: fully human recombinant antibody, human IgG1 heavy chain, kappa light chain (IGKV1-5); also called 85C5E4G3
# B5: PR000072 (antibody, human IgG1, kappa, N297A, V domains shown)
# VH: B1 VH with V61G, D90E, F106S
# VL: B2 VL with V21I, Y30S, I31S, S94Y
# notes: fully human recombinant antibody, human IgG1 heavy chain, kappa light chain (IGKV1-5); also called 98E11H1C9
# B6: PR000068 (antibody, human IgG1, kappa, N297A, V domains shown)
# VH: B1 VH with A101P, F106S
# VL: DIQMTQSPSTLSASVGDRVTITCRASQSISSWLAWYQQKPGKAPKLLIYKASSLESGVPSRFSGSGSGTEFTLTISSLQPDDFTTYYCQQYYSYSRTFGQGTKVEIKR
# notes: fully human recombinant antibody, human IgG1 heavy chain, kappa light chain (IGKV1-5); also called 82F8H7E1
# B7: PR000071 (antibody, human IgG1, kappa, N297A, V domains shown)
# VH: B1 VH with L79Q, F106S
# VL: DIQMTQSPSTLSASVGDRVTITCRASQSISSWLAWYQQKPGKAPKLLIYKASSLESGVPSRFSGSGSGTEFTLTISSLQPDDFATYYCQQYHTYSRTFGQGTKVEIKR
# notes: fully human recombinant antibody, human IgG1 heavy chain, kappa light chain (IGKV1-5); also called 95C7C4A9
# B8: PR000064 (antibody, human IgG1, kappa, N297A, V domains shown)
# VH: B1 VH
# VL: B2 VL with A13T, V21I, Y30S, N45K, T56S, S94Y
# notes: fully human recombinant antibody, human IgG1 heavy chain, kappa light chain (IGKV1-5); also called 63G11H3G9
# B9: PR000265 (antibody, human IgG1, kappa, N297A)
# heavy: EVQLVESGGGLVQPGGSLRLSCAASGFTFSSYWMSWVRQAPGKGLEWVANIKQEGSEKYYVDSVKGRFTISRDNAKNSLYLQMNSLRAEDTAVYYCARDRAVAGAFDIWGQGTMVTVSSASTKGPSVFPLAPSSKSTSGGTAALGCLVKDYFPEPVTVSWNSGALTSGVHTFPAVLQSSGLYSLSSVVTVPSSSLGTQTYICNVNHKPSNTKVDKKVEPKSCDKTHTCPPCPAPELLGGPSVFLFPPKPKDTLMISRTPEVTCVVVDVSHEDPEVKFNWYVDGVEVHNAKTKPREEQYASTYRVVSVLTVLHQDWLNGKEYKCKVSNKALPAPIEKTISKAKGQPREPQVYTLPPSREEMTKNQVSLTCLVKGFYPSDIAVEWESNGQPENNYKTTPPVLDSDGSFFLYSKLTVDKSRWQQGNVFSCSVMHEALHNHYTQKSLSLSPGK
# light: DIQMTQSPSTLSASVGDRVTVTCRASQSIYIWLAWYQQKPGKAPNLLIYKASSLETGVPSRFSGSGSGTEFTLTISSLQPDDFATYYCQQYYGSSRTFGQGTKVEIKRTVAAPSVFIFPPSDEQLKSGTASVVCLLNNFYPREAKVQWKVDNALQSGNSQESVTEQDSKDSTYSLSSTLTLSKADYEKHKVYACEVTHQGLSSPVTKSFNRGEC
# notes: heavy chain human IgG1 (N297A)
# B10: PR000266 (antibody, human IgG1, kappa, N297A, V domains shown)
# VH: B1 VH with G55A
# VL: B2 VL
# notes: as for B9
# B11: PR000267 (antibody, human IgG1, kappa, N297A, V domains shown)
# VH: B1 VH with D54E, V61G, D90E, F106S
# VL: B2 VL with V21I, Y30S, I31S, S94Y
# notes: as for B9
# B12: PR000268 (antibody, human IgG1, kappa, N297A, V domains shown)
# VH: B1 VH with G55A, V61G, D90E, F106S
# VL: B2 VL with V21I, Y30S, I31S, S94Y
# notes: as for B9
# B13: PR000264 (antibody, human IgG1, kappa, N297A, V domains shown)
# VH: B1 VH with G55A, Y94F, D107A
# VL: B2 VL with V21I, K39H, N45K, T56S, Y87F, S94Y, K107R
# notes: as for B9
# B14: PR000261 (antibody, human IgG1, kappa, N297A, V domains shown)
# VH: B1 VH with D54E, F106S, D107A, I108F
# VL: B2 VL with D17H, V21I, Y30S, N45D
# notes: PTM variant of PR000066 (H:D54E); heavy chain human IgG1 (N297A)
# B15: PR000263 (antibody, human IgG1, kappa, N297A, V domains shown)
# VH: B1 VH with D54E, Y94F, D107A
# VL: B2 VL with V21I, K39H, N45K, T56S, Y87F, S94Y, K107R
# notes: as for B9
# B16: PR000262 (antibody, human IgG1, kappa, N297A, V domains shown)
# VH: B1 VH with G55A, F106S, D107A, I108F
# VL: B2 VL with D17H, V21I, Y30S, N45D
# notes: PTM variant of PR000066 (H:G55A); heavy chain human IgG1 (N297A)
# B17: PR000065 (antibody, human IgG1, kappa, N297A, V domains shown)
# VH: B1 VH
# VL: B2 VL with V21I, Y30F
# notes: fully human recombinant antibody, human IgG1 heavy chain, kappa light chain (IGKV1-5); also called 67C1F7G6
# Target: T1, human PD-L1 on Hep3B cells co-expressing human PD-L1 and OS8 (human, UniProt Q9NZQ7 19-290)
# T1 sequence (Q9NZQ7 19-290): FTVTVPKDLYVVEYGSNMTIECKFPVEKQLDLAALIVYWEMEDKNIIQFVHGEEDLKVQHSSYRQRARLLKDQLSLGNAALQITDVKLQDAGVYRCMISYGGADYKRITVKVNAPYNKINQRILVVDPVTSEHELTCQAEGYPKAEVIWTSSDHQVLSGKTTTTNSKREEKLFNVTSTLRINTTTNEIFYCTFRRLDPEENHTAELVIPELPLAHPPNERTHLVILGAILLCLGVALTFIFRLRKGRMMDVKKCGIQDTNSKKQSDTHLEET
# Assay: cell-based or functional assay
Binder,"EC50 (nM), PD-1 / NFAT-luciferase reporter [nM]",Maximum fluorescence value (RLU)
B1,0.682,79800
B2,0.269,82700
B3,0.292,85900
B4,0.271,83300
B5,0.293,78000
B6,0.603,83300
B7,2.71,79700
B8,0.533,81600

# Target: T1, human PD-L1 on Hep3B cells …
# Assay: cell-based or functional assay
# Remark: another data set of the same source
Binder,"EC50 (nM), PD-1 / NFAT-luciferase reporter [nM]",Maximum fluorescence value (RLU)
B9,0.533,50700
B10,0.68,48400
B11,0.796,43000
B12,0.759,45500

# Target: T2, Human PD-L1 (Acrobiosystems, PD1-H5229) (human, UniProt Q9NZQ7 19-238)
# T2 construct: bought reagent; also called human PD-L1 protein
# T2 sequence (Q9NZQ7 19-238 limits assumed): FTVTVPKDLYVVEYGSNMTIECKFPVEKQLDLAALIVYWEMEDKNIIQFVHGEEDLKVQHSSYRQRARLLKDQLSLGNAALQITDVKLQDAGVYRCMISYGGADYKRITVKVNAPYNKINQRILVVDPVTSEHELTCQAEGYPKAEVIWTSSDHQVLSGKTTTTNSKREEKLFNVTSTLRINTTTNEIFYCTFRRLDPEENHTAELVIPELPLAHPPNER
# Assay: ELISA, coated human PD-L1
row,Binder,EC50 [nM]
1,B9,0.0373
2,B10,0.0415
3,B2,0.0641
4,B11,0.0462
5,B13,0.0343
6,B14,0.0385
7,B15,0.0321
8,B3,0.0189
9,B4,0.0637
10,B5,0.0474
11,B16,0.0338
12,B12,0.0412

# Target: T3, human PD-L1 on CHO-K1 cells (CHO-K1/hPD-L1, Nanjing Genscript, M00543) (human, UniProt Q9NZQ7 19-290)
# T3 construct: whole, on cells; also called CHO-K1 cells overexpressing human PD-L1; human PD-L1 on the cell surface
# T3 sequence (Q9NZQ7 19-290, one chain of several): as the sequence (Q9NZQ7 19-290) above
# Assay: flow cytometry on CHO-K1/hPD-L1 cells
Binder,EC50 [nM],MFI maximum value [MFI]
B1,0.456,7340
B2,0.21,7790
B17,0.412,7660
B3,0.255,7860
B4,0.312,7530
B5,0.292,7630
B6,0.326,7640
B7,0.521,6890
B8,0.417,7880

# Target: T4, cynomolgus PD-L1 on CHO-K1 cells (CHO-K1/cynoPD-L1, Nanjing Genscript, M00573) (cynomolgus, UniProt G7PSE7 19-290)
# T4 construct: also called CHO-K1 cells overexpressing cynomolgus PD-L1
# T4 sequence (G7PSE7 entry or part of it limits assumed, one chain of several): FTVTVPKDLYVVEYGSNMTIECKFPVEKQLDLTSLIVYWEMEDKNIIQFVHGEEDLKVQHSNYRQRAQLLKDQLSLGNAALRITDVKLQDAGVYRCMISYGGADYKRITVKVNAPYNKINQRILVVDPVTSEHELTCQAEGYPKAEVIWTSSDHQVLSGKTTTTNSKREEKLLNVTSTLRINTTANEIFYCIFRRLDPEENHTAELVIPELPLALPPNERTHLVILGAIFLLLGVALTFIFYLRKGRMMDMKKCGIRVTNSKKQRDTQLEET
# Assay: flow cytometry on CHO-K1/cynoPD-L1 cells
Binder,EC50 [nM],MFI maximum value [MFI]
B9,0.451,22600
B10,0.562,22400
B11,0.775,22400
B12,0.759,22200

# Target: T5, Human PD-L1 (Acrobiosystems, EP-101-96tests, A001-214) (human, UniProt Q9NZQ7 19-238)
# T5 construct: bought reagent; also called human PD-L1 protein
# T5 sequence (Q9NZQ7 19-238 limits assumed): as the sequence (Q9NZQ7 19-238 limits assumed) above
# Assay: competition ELISA: hPD-1-Biotin binding to coated hPD-L1
Binder,IC50 [nM],Maximum inhibition rate (%)
B1,0.333,92.9
B2,0.2,90.6
B17,0.432,99
B3,0.35,93
B4,0.313,90.7
B5,0.237,89.8
B6,0.288,91.6
B7,0.448,89
B8,0.313,91.1

# Target: T6, Human PD-L1-hFc protein (Acrobiosystems, PD1-H5258) (human, UniProt Q9NZQ7 19-238)
# T6 construct: bought reagent; not shown: human Fc (hFc)
# T6 sequence (Q9NZQ7 19-238 limits assumed): as above
# Assay: competition ELISA: hB7-1-Biotin binding to coated hPD-L1-hFc
Binder,IC50 [nM],Maximum inhibition rate (%)
B1,0.153,36.9
B2,0.305,39.9
B17,0.312,43.8
B3,0.198,47.2
B4,0.28,33
B5,0.253,47.6
B6,0.199,35
B7,0.351,37.5
B8,0.284,35.9

# Target: T7, human PD-L1 protein with histidine tag (NovoProtein, C315) (human, UniProt Q9NZQ7 19-239, limits assumed, biotinylated with EZ-Link Sulfo-NHS-LC-Biotin in the epitope competition experiments (Examples 8 and 20); not biotinylated in the affinity experiments)
# T7 construct: bought reagent; also called biotinylated PD-L1 protein; not shown: histidine tag
# T7 sequence (Q9NZQ7 19-239 limits assumed): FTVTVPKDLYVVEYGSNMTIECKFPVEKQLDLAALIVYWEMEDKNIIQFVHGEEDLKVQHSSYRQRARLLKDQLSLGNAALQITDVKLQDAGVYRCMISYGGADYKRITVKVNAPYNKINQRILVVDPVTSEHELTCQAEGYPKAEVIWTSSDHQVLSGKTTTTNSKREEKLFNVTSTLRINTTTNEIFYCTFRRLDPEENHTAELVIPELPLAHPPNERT
# Assay: BLI (Octet), antibody on AHC sensor, antigen 60 nM, 1:1 local fit
Binder,Kd [nM],koff [s⁻¹],kon [M⁻¹ s⁻¹]
B9,0.409,0.000106,260000
B10,0.349,9.62e-05,276000

# Target: T3, human PD-L1 on CHO-K1 cells …
# Assay: flow cytometry competition: biotin-hPD-1 binding to CHO-K1/hPD-L1 cells
Binder,IC50 [nM],Maximum inhibition rate (%)
B1,0.894,91.2
B2,0.449,90.7
B3,0.539,91.8
B4,0.836,92.3
B5,0.746,92.5
B6,0.853,91.4
B7,0.987,91.6
B8,0.938,91.5

# Target: T3, human PD-L1 on CHO-K1 cells …
# Assay: as above
# Remark: another data set of the same source
Binder,IC50 [nM],Maximum inhibition rate (%)
B9,0.604,93.6
B10,0.838,91.5
B11,1.04,91
B12,1.16,91.3

# Target: T7, human PD-L1 protein with histidine tag …
# Assay: BLI (Octet), antibody on AHC sensor, antigen 50~1.56 nM, 1:1 global fit
Binder,Kd [nM],koff [s⁻¹],kon [M⁻¹ s⁻¹]
B9,0.106,7.09e-05,669000
